In CN104744590A:

Legend:
[1] = target: 重组血凝素蛋白 H6N1(A/Califomia/HKWF115/2007) (Influenza A virus H6N1 (California/HKWF115/2007 as printed))
[2] = target: 重组血凝素蛋白 H1N1(A/California/7/2009) (Influenza A virus H1N1 (A/California/7/2009))
[3] = target: 重组血凝素蛋白 H1N1(A/Ohio/UR06-0091/2007) (Influenza A virus H1N1 (A/Ohio/UR06-0091/2007))
[4] = target: 重组血凝素蛋白 H1N1(A/New Caledonia/20/1999) (Influenza A virus H1N1 (A/New Caledonia/20/1999))
[5] = target: 重组血凝素蛋白 H1N3(A/duck/NZL/160/1976) (Influenza A virus H1N3 (A/duck/NZL/160/1976))
[6] = target: 重组血凝素蛋白 H1N2(A/swine/Guangxi/13/2006) (Influenza A virus H1N2 (A/swine/Guangxi/13/2006))
[7] = target: 重组血凝素蛋白 H2N2(A/Canada/720/2005) (Influenza A virus H2N2 (A/Canada/720/2005))
[8] = target: 重组血凝素蛋白 H1N1(A/Puerto Rico/8/1934) (Influenza A virus H1N1 (A/Puerto Rico/8/1934)) (UniProt P03452)
[9] = target: 重组血凝素蛋白 H1N1(A/California/4/2009) (Influenza A virus H1N1 (A/California/4/2009))

B1: 抗甲型H1N1猪流感病毒血凝素蛋白鼠单克隆抗体 (antibody, V domains shown)
VH: EIQLQQTGPELVKPGAPVKISCKASGYSLTDYIILWVKQSHGKSLEWIGNINPYFGTTSYNLKFKDKATLTVDKSSSTAYMELNSLTSEDSAVYYCARNDNYAMDYWGQGTSVTVSS
VL: QIVLTQSPAIMSASLGERVTMTCTASSSVSSTYLHWYQQKPGSSPKLWIYSTSNLASGVPARFSGSGSGTSYSLTISSMEAEDAATYYCHQYHRSPYTFGGGTKLEIKR
- OD450nm值 [1]: 0.003 OD450nm
- OD450nm值 [2]: 1.88 OD450nm
- OD450nm值 [3]: 0.015 OD450nm
- OD450nm值 [4]: 0.001 OD450nm
- OD450nm值 [5]: 0.001 OD450nm
- OD450nm值 [6]: 0.004 OD450nm
- OD450nm值 [7]: 0.002 OD450nm
- OD450nm值 [8]: 0.005 OD450nm
- OD450nm值 [9]: 2.01 OD450nm
